Molecular target: T1, Human li p10 (human)
T1 construct: also called Ii p10; li p10 peptide
T1 chain: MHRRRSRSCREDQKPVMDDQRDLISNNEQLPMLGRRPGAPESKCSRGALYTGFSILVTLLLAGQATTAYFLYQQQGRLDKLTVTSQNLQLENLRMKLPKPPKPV
Assay: flow cytometry on fixed and permeabilised human PBMC treated with Cathepsin S inhibitor 1
Method: FIG. 1: Detection of Ii p10 expression on B cells and T cells using a neoepitope antibody. PBMCs isolated from blood donation of a healthy donor (R213) were incubated for 20 h with increasing concentrations of Cathepsin S inhibitor 1 or vehicle. Ii p10 detection on B cells (CD20+) and T cells (CD3+) was determined by flow cytometry using a different neoepitope antibody 7B8 (black).

- binding result: binds
B1: anti li p10 antibody 7B8 (antibody, V domains shown)
VH: QSLEESGGRLVTPGTPLTLTCTVSGIDLSTYAMTWVRQAPGKGLEWIGIIYNNGVVVYASWAKGRFTISKTSTTVDLKMTSPTTEDTATYFCCRGYYDGSVNVWGPGTLVTVSL
VL: QVLTQTASSVSAVVGGTVTISCQSSQSVYNDNVLSWFQQKPGQPPKLLIYLASTLASGVPSRFSGSGSGTQFTLTISDLECDDAAAYYCLGGYTGDMYAFGGGTEVVV
notes: Used unlabeled at 10 ug/mL and detected with PE-conjugated goat anti-rabbit IgG; also called anti-p10 antibody

From patent publication US20170192000A1 (Hoffmann-La Roche, published 2017)
